The supplement of paper PMC10126150
± gives the standard deviation of the averaged measurements.

Test system: ATP
Experiment: switch fluorescence ratio, 500 uM ATP over buffer (Cy3 cluster intensity, sum of 5 cycles each) (fold (ratio)); higher = stronger signal-on switching upon ATP binding; sequences stand for … in TCGTCGGCAGCGTCAGATGTGTATAAGAGACAGTTTTTTTTTTTTTTTTTTTTTTTTT…TC
Details: aptamer strand: ATP DNA aptamer (quencher-CACCTGGGGGAGTATTGCGGAGGAAGG + anchor), 100 nM annealed; ATP concentration: 500 uM
How it was run: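 Per cluster, summed Cy3 intensity from the target cycles was divided by that from the buffer cycles to give the fluorescence ratio, then averaged per switch-domain sequence. Clusters outside 100-1000 RFU were excluded. The Cy3-labelled switching-strand clusters, on a modified Illumina MiSeq flow-cell, were annealed to 100 nM quencher-labelled ATP aptamer and imaged in selection buffer, then after 15 min with 500 uM ATP at 22 °C, for five cycles with NaOH stripping and re-annealing between them.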
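Further: ATP exposure 15 min at 22 °C before imaging.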

| Sequence | switch fluorescence ratio |
| --- | --- |
| ACGATCAGCG | 1.022 ± 0.0037 |
| ACGATCATTT | 1.048 ± 0.0024 |
| ACGATCGAAA | 1.24 ± 0.019 |
| ACGATGAACG | 1.04 ± 0.021 |
| ACGATGAAGA | 1.009 ± 0.0026 |
| ACGATGATCT | 1.06 ± 0.019 |
| ACGATGGAAT | 1.45 ± 0.056 |
| ACGATTAGAC | 1.12 ± 0.029 |
| ACGATTGGTA | 1.03 ± 0.092 |
| ACGATTTGGT | 1 ± 0.013 |
| ACGATTTTAG | 1.04 ± 0.041 |
| ACGATTTTTA | 1 ± 0.013 |
| ACGCCATTCT | 1.151 ± 0.0096 |
| ACGCCGTCGA | 1.035 ± 0.0099 |
| ACGCCTGGGC | 1.02 ± 0.023 |
| ACGCCTGGTC | 1.01 ± 0.059 |
| ACGCGACACC | 1.25 ± 0.058 |
| ACGCGGACGG | 1.05 ± 0.016 |
| ACGCGGAGAC | 1.24 ± 0.024 |
| ACGCTGTTGA | 1.03 ± 0.047 |
| ACGCTTGCTA | 1.02 ± 0.013 |
| ACGCTTTGCA | 0.987 ± 0.01 |
| ACGGAAAACA | 1.019 ± 0.0039 |

| Sequence | switch fluorescence ratio |
| --- | --- |
| ACGGAACAAG | 1.09 ± 0.12 |
| ACGGAAGTGC | 1.12 ± 0.036 |
| ACGGCACTCT | 1.55 ± 0.0028 |
| ACGGCATAAT | 1.11 ± 0.013 |
| ACGGCATTTG | 1.05 ± 0.024 |
| ACGGCTTTCG | 1.05 ± 0.097 |
| ACGGGAAGGC | 1.09 ± 0.035 |
| ACGGGAGCTT | 1.03 ± 0.041 |
| ACGGGATTAA | 1.04 ± 0.051 |
| ACGGGCCGGG | 1.02 ± 0.12 |
| ACGGGCGGCA | 1.16 ± 0.23 |
| ACGGGCGGTC | 1.01 ± 0.015 |
| ACGGGGCCGT | 0.985 ± 0.031 |
| ACGGGGGAAT | 0.991 ± 0.02 |
| ACGGGGGAGC | 1.03 ± 0.043 |
| ACGGGGGGAA | 1.02 ± 0.019 |
| ACGGGGGTCC | 1.02 ± 0.025 |
| ACGGGGGTTA | 1.02 ± 0.024 |
| ACGGGGTCAG | 0.999 ± 0.026 |
| ACGGGTCCGG | 1.02 ± 0.011 |
| ACGGGTGGCT | 1 ± 0.014 |
| ACGGGTGGGG | 1.05 ± 0.051 |
| ACGGGTTAAT | 1.01 ± 0.026 |

| Sequence | switch fluorescence ratio |
| --- | --- |
| ACGGGTTAGA | 1.02 ± 0.036 |
| ACGGGTTGGG | 1.02 ± 0.017 |
| ACGGTCGGGC | 0.9775 ± 0.00067 |
| ACGGTCTTGG | 0.999 ± 0.015 |
| ACGGTGGGGA | 1.04 ± 0.036 |
| ACGGTGGGGG | 1.01 ± 0.025 |
| ACGGTGGGTA | 1 ± 0.038 |
| ACGGTGTATG | 0.989 ± 0.031 |
| ACGGTTCAAT | 1.05 ± 0.011 |
| ACGGTTGAG | 0.96 ± 0.036 |
| ACGTACACTT | 1.45 ± 0.074 |
| ACGTACCGGC | 1.31 ± 0.075 |
| ACGTATAGAA | 1.159 ± 0.0097 |
| ACGTATGAAA | 1.09 ± 0.059 |
| ACGTATGATA | 1.16 ± 0.056 |
| ACGTATGGCT | 0.973 ± 0.021 |
| ACGTATTACA | 1.83 ± 0.87 |
| ACGTCCGATC | 1.11 ± 0.039 |
| ACGTCGTCGG | 0.964 ± 0.018 |
| ACGTCTATGT | 0.992 ± 0.0074 |
| ACGTGCCGGT | 0.99 ± 0.05 |
| ACGTGCGGAG | 1.01 ± 0.016 |
| ACGTGCGGGC | 1.05 ± 0.013 |

| Sequence | switch fluorescence ratio |
| --- | --- |
| ACGTGCTTAT | 0.976 ± 0.013 |
| ACGTGGGGGT | 1.01 ± 0.011 |
| ACGTGGGTAG | 0.987 ± 0.041 |
| ACGTGGTGTG | 1.015 ± 0.0075 |
| ACGTGGTTGA | 1.05 ± 0.026 |
| ACGTGTAAGC | 1.03 ± 0.035 |
| ACGTGTGGGC | 1.02 ± 0.017 |
| ACGTGTTTGT | 1.03 ± 0.018 |
| ACGTTAGGGA | 1.07 ± 0.091 |
| ACGTTATGCT | 1.17 ± 0.081 |
| ACGTTATGTG | 1.0491 ± 0.00035 |
| ACGTTCGTAC | 1.04 ± 0.012 |
| ACGTTGGCGT | 0.966 ± 0.041 |
| ACGTTGGGGC | 1.04 ± 0.027 |
| ACGTTGGGTC | 1.02 ± 0.06 |
| ACGTTGTTTG | 0.983 ± 0.02 |
| ACGTTTAGTG | 1.02 ± 0.016 |
| ACGTTTGAGG | 0.988 ± 0.014 |
| ACGTTTGAGT | 0.99 ± 0.016 |
| ACTAAGAGGG | 1.048 ± 0.0032 |
| ACTAAGGCTC | 1.04 ± 0.051 |
| ACTAAGGGG | 1.25 ± 0.35 |
| ACTAATCGTG | 1.02 ± 0.011 |

| Sequence | switch fluorescence ratio |
| --- | --- |
| ACTAATTGA | 0.996 ± 0.027 |
| ACTACGATAT | 1.34 ± 0.022 |
| ACTACGCCCG | 1.37 ± 0.085 |
| ACTACTACCA | 1.31 ± 0.048 |
| ACTAGACTAG | 0.984 ± 0.044 |
| ACTAGGGGGG | 1.01 ± 0.022 |
| ACTAGGGTAT | 0.982 ± 0.061 |
| ACTAGGGTGC | 1.14 ± 0.014 |
| ACTAGGGTTG | 0.993 ± 0.02 |
| ACTAGGTATT | 1.03 ± 0.033 |
| ACTAGGTCAT | 1.03 ± 0.017 |
| ACTAGGTGGG | 1.01 ± 0.041 |
| ACTAGTAGTC | 0.994 ± 0.012 |
| ACTAGTGCGG | 1.01 ± 0.028 |
| ACTAGTTGTC | 0.991 ± 0.033 |
| ACTATATGAT | 1.08 ± 0.043 |
| ACTATATTGG | 1.065 ± 0.0095 |
| ACTATCGGTT | 1.07 ± 0.075 |
| ACTATGCTTT | 1.021 ± 0.0059 |
| ACTATGGATG | 1.02 ± 0.036 |
| ACTATGGGGG | 0.995 ± 0.036 |
| ACTATGTAGG | 0.979 ± 0.013 |
| ACTATTGGTA | 1.03 ± 0.046 |

| Sequence | switch fluorescence ratio |
| --- | --- |
| ACTATTTGCA | 1.019 ± 0.0057 |
| ACTCAATGCA | 1.06 ± 0.045 |
| ACTCACGGGA | 1.46 ± 0.36 |
| ACTCAGCGCG | 1.08 ± 0.029 |
| ACTCATATAT | 1.02 ± 0.0045 |
| ACTCATGACG | 1.045 ± 0.0025 |
| ACTCATTTAC | 1.21 ± 0.096 |
| ACTCGATACG | 1.07 ± 0.037 |
| ACTCGGACCG | 1.0425 ± 0.00055 |
| ACTCGGGGTG | 0.998 ± 0.025 |
| ACTCGGTGGG | 1.01 ± 0.035 |
| ACTCGGTTTG | 0.949 ± 0.067 |
| ACTCGTTGTC | 1.02 ± 0.035 |
| ACTCGTTTCG | 1 ± 0.013 |
| ACTCTAGGTG | 3.47 ± 0.091 |
| ACTCTGGGTC | 1.07 ± 0.016 |
| ACTCTGGTCA | 0.986 ± 0.027 |
| ACTCTGTTTT | 1.01 ± 0.012 |
| ACTCTTACTT | 1.157 ± 0.0042 |
| ACTCTTAGGG | 1.03 ± 0.027 |
| ACTCTTTCGG | 1 ± 0.063 |
| ACTGAGTGGC | 1.06 ± 0.029 |
| ACTGATACGT | 1.12 ± 0.017 |

| Sequence | switch fluorescence ratio |
| --- | --- |
| ACTGATGAAG | 0.991 ± 0.049 |
| ACTGCAAGGA | 1.029 ± 0.0078 |
| ACTGCGAATA | 1.41 ± 0.021 |
| ACTGCTGGGA | 1.01 ± 0.015 |
| ACTGGATCAC | 1.099 ± 0.0035 |
| ACTGGATTGG | 1.01 ± 0.042 |
| ACTGGATTTG | 0.9885 ± 0.002 |
| ACTGGCATCC | 1.08 ± 0.029 |
| ACTGGCGGCG | 1 ± 0.012 |
| ACTGGCGTGC | 1.04 ± 0.07 |
| ACTGGGAGTG | 1 ± 0.042 |
| ACTGGGATC | 1.01 ± 0.019 |
| ACTGGGATCA | 1.03 ± 0.02 |
| ACTGGGGAGG | 1.01 ± 0.022 |
| ACTGGGGGAA | 0.97 ± 0.018 |
| ACTGGGGGAG | 1.02 ± 0.015 |
| ACTGGTTATC | 1.02 ± 0.046 |
| ACTGGTTATT | 1 ± 0.016 |
| ACTGGTTCGT | 0.998 ± 0.012 |
